Patent publication US20230346885A1 (published 2023)
Positions count from the first letter of the chain named. Values belong to the binder of their own block, whether it stands above or below them.

Legend:
Assay in all cases: binding, other
[1] = target: T1, HOXB13 peptide on HLA (human)
T1 peptide: SLSERQITI

[2] = target: T2, KLK3 peptide on HLA (human)
T2 peptide: KVMDLPTQEPAL

[3] = target: T3, HOXB13 peptide on HLA (human)
T3 peptide: YLDVSVVQT

[4] = target: T4, DCAF4L2 peptide on HLA (human)
T4 peptide: ILQDGQFLV

[5] = target: T5, HTR3A peptide on HLA (human)
T5 peptide: SLAETIFIV

[6] = target: T6, HTR3A peptide on HLA (human)
T6 peptide: AILNVDEKNQV

[7] = target: T7, KLK4 peptide on HLA (human)
T7 peptide: KLYDPLYHPSM

[8] = target: T8, KLK4 peptide on HLA (human)
T8 peptide: FQNSYTIGL

binding result [1]: recognises
B1: TCR of SEQ ID NOs 367 and 368 (TCR, V domains shown)
Valpha: KQEVTQIPAALSVPEGENLVLNCSFTDSAIYNLQWFRQDPGKGLTSLLLIQSSQREQTSGRLNASLDKSSGRSTLYIAASQPGDSATYLCAVRPHGQNFVFGPGTRLSVLP
Vbeta: NAGVTQTPKFRVLKTGQSMTLLCAQDMNHEYMYWYRQDPGMGLRLIHYSVGEGTTDKGEVPNGYNVSRLNKREFSLRLESAAPSQTSVYFCASSSLARETQYFGPGTRLLVL

binding result [2]: recognises
B2: TCR of SEQ ID NOs 391 and 392 (TCR, V domains shown)
Valpha: QKEVEQNSGPLSVPEGAIASLNCTYSDRGSQSFFWYRQYSGKSPELIMSIYSNGDKEDGRFTAQLNKASQYVSLLIRDSQPSDSATYLCAVNSPGNARLMFGDGTQLVVKP
Vbeta: NAGVTQTPKFQVLKTGQSMTLQCAQDMNHEYMSWYRQDPGMGLRLIHYSVGAGITDQGEVPNGYNVSRSTTEDFPLRLLSAAPSQTSVYFCASSYWRGGLEQYFGPGTRLTVT

binding result [3]: recognises
B3: TCR of SEQ ID NOs 373 and 374 (TCR, V domains shown)
Valpha: KQEVTQIPAALSVPEGENLVLNCSFTDSAIYNLQWFRQDPGKGLTSLLLIQSSQREQTSGRLNASLDKSSGRSTLYIAASQPGDSATYLCAANDPMDSSYKLIFGSGTRLLVRP
Vbeta: NAGVTQTPKFRVLKTGQSMTLLCAQDMNHEYMYWYRQDPGMGLRLIHYSVGEGTTAKGEVPDGYNVSRLKKQNFLLGLESAAPSQTSVYFCASSPLDGWNYGYTFGSGTRLTVV

binding result [4]: recognises
B4: TCR of SEQ ID NOs 359 and 360 (TCR, V domains shown)
Valpha: KQEVTQIPAALSVPEGENLVLNCSFTDSAIYNLQWFRQDPGKGLTSLLLIQSSQREQTSGRLNASLDKSSGRSTLYIAASQPGDSATYLCAVRPTRGDSWGKLQFGAGTQVVVTP
Vbeta: NAGVTQTPKFQVLKTGQSMTLQCAQDMNHNSMYWYRQDPGMGLRLIYYSASEGTTDKGEVPNGYNVSRLNKREFSLRLESAAPSQTSVYFCASSYSLLGNEAFFGQGTRLTVV

binding result [5]: recognises
B5: TCR of SEQ ID NOs 387 and 388 (TCR, V domains shown)
Valpha: KQEVTQIPAALSVPEGENLVLNCSFTDSAIYNLQWFRQDPGKGLTSLLLIQSSQREQTSGRLNASLDKSSGRSTLYIAASQPGDSATYLCAVSGDSWGKLQFGAGTQVVVTP
Vbeta: B4 Vbeta with S96W, L97G, L98P, G99N, N100T

binding result [6]: recognises
B6: TCR of SEQ ID NOs 377 and 378 (TCR, V domains shown)
Valpha: KQEVTQIPVALSVPEGENLVLNCSFTDSAIYNLQWFRQDPGKGLTSLLLIQSSQREQTSGRLNASLDKSSGRSTLYIAASQPGDSATYLCAVTDSWGKLQFGAGTQVVVTP
Vbeta: NAGVTQTPKFQVLKTGQSMTLQCAQDMNHNSMYWYRQDPGMGLRLIYYSASEGTTDKGEVPNGYNVSRLNKREFSLRLESAAPSQTSLYFCASSEGPADTYGYTFGSGTRLTVV

binding result [7]: recognises
B7: TCR of SEQ ID NOs 395 and 396 (TCR, V domains shown)
Valpha: B6 Valpha with V9A, T93L
Vbeta: NAGVTQTPKFRVLKTGQSMTLLCAQDMNHEYMYWYRQDPGMGLRLIHYSVGEGTTAKGEVPDGYNVSRLKKQNFLLGLESAAPSQTSVYFCASSGLLSPDTQYFGPGTRLKVL

binding result [2]: recognises
B8: TCR of SEQ ID NOs 389 and 390 (TCR, V domains shown)
Valpha: QKEVEQNSGPLSVPEGAIASLNCTYSDRGSQSFFWYRQYSGKSPELIMSIYSNGDKEDGRFTAQLNKASQYVSLLIRDSQPSDSATYLCAVWGKSGGYNKLIFGAGTRLAVHP
Vbeta: NAGVTQTPKFGILKTGQSMTLQCAQDMNHEYMSWYRQDPGMGLRLIHYSVGAGITDKGEVPNGYNVSRSTTEDFPLRLELAAPSQTSVYFCASSYSSPLRQDNSPLHFGNGTRLTVT

binding result [8]: recognises
B9: TCR of SEQ ID NOs 407 and 408 (TCR, V domains shown)
Valpha: KQEVTQIPAALSVPEGENLVLNCSFTDSAIYNLQWFRQDPGKGLTSLLLIQSSQREQTSGRLNASLDKSSGRSTLYIAASQPGDSATYLCAVRSYNTDKLIFGTGTRLQVFP
Vbeta: NAGVTQTPKFRILKIGQSMTLQCTQDMNHNYMYWYRQDPGMGLKLIYYSVGAGITDKGEVPNGYNVSRSTTEDFPLRLELAAPSQTSVYFCASSYSSWTEAFFGQGTRLTVV

binding result [7]: recognises
B10: TCR of SEQ ID NOs 399 and 400 (TCR, V domains shown)
Valpha: KQEVTQIPAALSVPEGENLVLNCSFTDSAIYNLQWFRQDPGKGLTSLLLIRSSQREQTSGRLNASLDKSSGRSTLYIAASQPGDSATYLCAVMSSQGGSEKLVFGKGTKLTVNP
Vbeta: NAGVTQTPKFRVLKTGQSMTLLCAQDMNHEYMYWYRQDPGMGLRLIHYSVGEGTTAKGEVPDGYNVSRLKKQNFLLGLESAAPSQTSVYFCASKGLVADTIYFGEGSWLTVV

binding result [3]: recognises
B11: TCR of SEQ ID NOs 371 and 372 (TCR, V domains shown)
Valpha: KQEVTQIPAALSVPEGENLVLNCSFTDSAIYNLQWFRQDPGKGLTSLLLIQSSQREQTSGRLNASLDKSSGRSTLYIAASQPGDSATYLCAVRHDYQLSFGAGTTVTVRA
Vbeta: NAGVTQTPKFQVLKTGQSMTLQCAQDMNHEYMSWYRQDPGMGLRLIHYSVGAGITDQGEVPNGYNVSRSTTEDFPLRLLSAAPSQTSVYFCASSRIGQRASFFGSGTRLTVV

binding result [2]: recognises
B12: TCR of SEQ ID NOs 393 and 394 (TCR, V domains shown)
Valpha: AQSVTQLDSHVSVSEGTPVLLRCNYSSSVPPYLFWYVQYPNQGLQLLLKYTTGATLVKGINGFEAEFKKSETSFHLTKPSAHMSDAAEYFCAVSEDGNKLVFGAGTILRVKS
Vbeta: AAGVIQSPRHLIKEKRETATLKCYPIPRHDTVYWYQQGPGQDPQFLISFYEKMQSDKGSIPDRFSAQQFSDYHSELNMSSLELGDSALYFCASRLTGVSGEGDYGYTFGSGTRLTVV

binding result [4]: recognises
B13: TCR of SEQ ID NOs 361 and 362 (TCR, V domains shown)
Valpha: KQEVTQIPAALSVPEGENLVLNCSFTDSAIYNLQWFRQDPGKGLTSLLLIQSSQREQTSGRLNASLDKSSGRSTLYIAASQPGDSATYLCAVDTGRRALTFGSGTRLQVQP
Vbeta: NAGVTQTPKFQVLKTGQSMTLQCAQDMNHEYMYWYRQDPGMGLRLIHYSVGEGTTAKGEVPDGYNVSRLKKQNFLLGLESAAPSQTSVYFCASRDQINEKLFFGSGTQLSVL

binding result [4]: recognises
B14: TCR of SEQ ID NOs 363 and 364 (TCR, V domains shown)
Valpha: B13 Valpha with D93N, T94L, R96A, R97Q, A98K, T100V, S103Q, Q108T, V109I, Q110N
Vbeta: B9 Vbeta with Y95S, S96F, S97D, W98R, T99D, R108K

binding result [6]: recognises
B15: TCR of SEQ ID NOs 381 and 382 (TCR, V domains shown)
Valpha: KQEVTQIPAALSVPEGENLVLNCSFTDSAIYNLQWFRQDPGKGLTSLLLIQSSQREQTSGRLNASLDKSSGRSTLYIAASQPGDSATYLCAVRPADSWGKLQFGAGTQVVVTP
Vbeta: NAGVTQTPKFRILKIGQSMTLQCTQDMNHNYMYWYRQDPGMGLKLIYYSVGAGITDKGEVPNGYNVSRSTTEDFPLRLELAAPSQTSVYFCASSYSLGELFFGEGSRLTVL

binding result [5]: recognises
B16: TCR of SEQ ID NOs 383 and 384 (TCR, V domains shown)
Valpha: B15 Valpha with R93L, P94T, A95T
Vbeta: NAGVTQTPKFRILKIGQSMTLQCTQDMNHNSMYWYRQDPGMGLRLIYYSASEGTTDKGEVPNGYNVSRLNKREFSLRLESAAPSQTSVYFCASSELIGTVDYSNQPQHFGDGTRLSIL

binding result [6]: recognises
B17: TCR of SEQ ID NOs 379 and 380 (TCR, V domains shown)
Valpha: KQEVTQIPAALSVPEGENLVLNCSFTDSAIYNLQWFRQDPGKGLTSLLLIQSSQREQTSGRLNASLDKSSGRSTLYIAASQPGDSATYLCAVSPFDLYGQNFVFGPGTRLSVLP
Vbeta: NAGVTQTPKFQVLKTGQSMTLQCAQDMNHNSMYWYRQDPGMGLRLIYYSASEGTTDKGEVPNGYNVSRLNKREFSLRLESAAPSQTSVYFCASRGTLFDPQHFGDGTRLSIL

binding result [1]: recognises
B18: TCR of SEQ ID NOs 365 and 366 (TCR, V domains shown)
Valpha: KQEVTQIPAALSVPEGENLVLNCSFTDSAIYNLQWFRQDPGKGLTSLLLIQSSQREQTSGRLNASLDKSSGRSTLYIAASQPGDSATYLCAVGGYNKLIFGAGTRLAVHP
Vbeta: NAGVTQTPKFQVLKTGQSMTLQCAQDMNHNSMYWYRQDPGMGLRLIYYSASEGTTDKGEVPNGYNVSRSTTEDFPLRLLSAAPSQTSVYFCASSYQGTGELFFGEGSRLTVL

binding result [1]: recognises
B19: TCR of SEQ ID NOs 369 and 370 (TCR, V domains shown)
Valpha: B18 Valpha with N96Q, L98V, I99T, A102T, R105K, A107Q, H109I
Vbeta: NAGVTQTPKFQVLKTGQSMTLQCAQDMNHNSMYWYRQDPGMGLRLIYYSASEGTTDKGEVPNGYNVSRSTTEDFPLRLLSAAPSQTSVYFCASSYQGGNEKLFFGSGTQLSVL

binding result [3]: recognises
B20: TCR of SEQ ID NOs 375 and 376 (TCR, V domains shown)
Valpha: B11 Valpha with Q97K
Vbeta: B11 Vbeta

binding result [7]: recognises
B21: TCR of SEQ ID NOs 397 and 398 (TCR, V domains shown)
Valpha: B18 Valpha with V92A, N96Q, L98V, I99T, A102T, R105K, A107Q, H109I
Vbeta: B15 Vbeta with E79L, L80S, S94R, Y95R, S96P, L97T

binding result [5]: recognises
B22: TCR of SEQ ID NOs 385 and 386 (TCR, V domains shown)
Valpha: B5 Valpha with S93L, G94T
Vbeta: NAGVTQTPKFRVLKTGQSMTLLCAQDMNHEYMYWYRQDPGMGLRLIHYSVGEGTTAKGEVPDGYNVSRLKKQNFLLGLESAAPSQTSVYFCASSYWGGNTEAFFGQGTRLTVV
